# ± gives the half width of the 95% confidence interval.
# Experiment: folding stability dG unfold (combined trypsin and chymotrypsin); higher = more stable
# Procedure: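 Folding stability of de novo designed mini-proteins (<80 aa, no Cys; designed by TrROS, TrMRF, ProteinMPNN and the joint model) was measured by cDNA display proteolysis with trypsin and chymotrypsin. Each protease was used at 11 concentrations in a threefold dilution series plus a no-protease condition. K50 was inferred by Bayesian fitting of sequencing counts, and dG unfold was derived against a sequence-predicted unfolded-state K50 (Tsuboyama et al. method). Sequences shown include variable-length N-terminal GS-type padding (SAGGSAGG...) inside a display construct carrying a PA tag. Rows were kept only if the AF2 dimer inter-PAE was >15, to exclude likely homo-oligomers.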
row,Sequence,folding stability dG unfold [kcal/mol]
1,SAGGIPLKEIKEMIENDPGETWTAQIYRMPPGPNGQMQQQTIEFPIKDPEDALDNLPPGYMVHVEPRSAGGS [r16_116_TrROS],< -1
2,SAGGSAGGRVITLKEEELKKLIEEGKVDSVDVEKLPDGTVKAKPIIKEKEELSPKNKEKIFELKSAGGSAGG [r6_279_JUSTAS],< -1
3,SASVVDLETDGSMSVEEVVERFKKENPNVKEVKVTTEALPDEPKYRITLTITEDKGKTEENLKKTKELKSAG [r14_645_JUSTAS],< -1
4,SAGGMVTIEITDIPEDDPEKAIETAKELVEKIKKEGPPLKVKIKGNTPVFEEVAAELKKLGVETDLESAGGS [r16_450_JUSTAS],< -1
5,SAGGTVREIKEILKEKGWPVKNVEPGPNGNYTVQLRRPRGKPFKINIPSDNPEEQQALREAIPPDFVSAGGS [r16_821_TrROS],< -1
6,SAGGSAGGSAAPIPPDQSATSLTLLPDGTVRKTTTTYPPPEFVTTTTTTIPISPEEGAAAGSAGGSAGGSAG [r3_437_JUSTAS],< -1
7,SAGGSAGGSAGGIKPGDKVRIMQMDKNGEMRGPVEIDNVEDGKITIKLPPPYRIMIQPYSAGGSAGGSAGGS [r10_1257_TrROS],< -1
8,SAGGSAGGSASAWEQYPNTTPGTTSKTDDVTVRTLTFPNPTTVVTVTEFPGGEVTVTTVPTPSAGGSAGGSA [r18_26_JUSTAS],< -1
9,SAGGSAGGSLVELEEEDPSVPVRRRYFIEKPSDGKVKVKEETVVPEPGEVVRSERVISLEEFEKSAGGSAGG [r6_652_JUSTAS],< -1
10,SAGGSAMFEVRKLSEDPSTGVTTELITLPDGKEVTVTTTTDSSGNPTVTVTFPDGTVLSLEEVELESAGGSA [r15_832_JUSTAS],< -1
11,SAGGSAGGSAGGPDVEKYPFKFPGKKFKIQRNPDDPDSYMISFPPGKTETFPLDDIKPLSAGGSAGGSAGGS [r10_556_TrROS],< -1
12,SAGGSAGGSGDKSPPLVPTVTLKTTDPDAVEKAVKAAGVAVTRYPGKGYYTFRKADVEKILKSSAGGSAGGS [r12_325_TrMRF],< -1
13,SAGGSAGGSAGKKKPPPKVTLVIRVKMSPEEVKKLAELFPDAKVTVTYDEETGLLTVTFDSAGGSAGGSAGG [r17_254_TrROS_Hall],> 6
14,SAGGSNPLLDELKDKPFRLPNIRDPGNGRDFPGVPIKIKEAEPPKDDGKISIKVEHPDGPYEMQIDSAGGSA [r2_314_TrROS],< -1
15,SAGGSAGGSAGGMVTNEVIEVDPANPEEVIAEIKAKGKAEAKKIEKLEGDKMKVYVKTSLSAGGSAGGSAGG [r7_589_JUSTAS],< -1
16,SAGGSAGGSAGPTTSSRTVKPGEVEEVKEAIEAQGVSVTVTLDPSTGTYTVGVTNPGVLGSAGGSAGGSAGG [r11_1043_JUSTAS],< -1
17,SAGGSAGGSAGSEKLEKIKEELKKKGYNDVEVKPAGPDPSVVLVKVKENKDIIIKIENEESAGGSAGGSAGG [r11_765_JUSTAS],< -1
18,SAGWKIKIYPPNGQPQEIPIEDAKEIAEELAEQGNVQITPDGDIYIPFPMKDPEDGKPHQMYIQIERDKSAG [r5_243_TrROS],< -1
19,SAGGSAGGSAGGMELEVHYTPNGYHTAEIRDPNGKPVEIYFDSPEDAPKEAQKLAKELQSAGGSAGGSAGGS [r10_1066_TrROS],< -1

row,Sequence,folding stability dG unfold [kcal/mol]
1,SAGGATTPVTVPTTSEEEVEAIIEELNKEGLSDLIPKGGKPIPPPDSLRLVPLVITTTPGSGKTTVTLSAGG [r13_174_JUSTAS],< -1
2,SAGGSAGGSAGGSMKIIEVPGPPEEVIEKIKEENPNAKVLSVEEDPEGGVTFKIEIEEKSAGGSAGGSAGGS [r4_95_JUSTAS],< -1
3,SAGGSAGGSATLEQIKEAIKDSPPGEPARIPFPNGYTIRIDMRYDKEENKIDDFDIEIEPPNSAGGSAGGSA [r18_202_TrROS],< -1
4,MTIEIEVTAEDLKEGKPLTAEELAKKLAEELGLEEVEVKVEVKEDGTVKITIEVKPKPPPEVVLPEELKKKS [r1_168_TrROS_Hall],< -1
5,SAGGSAGGSVKITRTPNGYYTVKIEDPGGVPVEIPVPADDPGMTNKEAEDEVKPIAKEFKRLKSAGGSAGGS [r12_642_TrROS],< -1
6,SAGGSAGGEKTASFKVKGNLVAKGVTTFYSPTSDEYTIETEIEKVPPGPKPEITPEEIAKNYLLSAGGSAGG [r6_148_JUSTAS],< -1
7,SAGGSAGGSKLKIEQDPSDGFLQIQIPPGDEEVKIKFNGEEIEFPLPPGQPIWIPANNWKIEPSAGGSAGGS [r20_26_TrROS],< -1
8,SAGIKPGDPLIIKFNFPPEARDKIKKLLEDPGFTYENDPDKGSVSIVFPAADVDRLQDLPGISEIVPVSAGG [r19_212_TrROS],< -1
9,SKSRPIEVEFRMPYPNGGPMRMRATVLINPDNGKIGIPMRMETPGKEREYPLPPSMMNNLAKTVLDKLGLSA [r9_1136_TrROS],-0.789 ± 0.81
10,SNTIMIMANVPPGPVRIKIEPKNGRRYEMPIPPGEPVMFHIPIPPGLPPGNKWKIEVENPDNGKEQEKDFSA [r9_275_TrROS],< -1
11,SAGMVKIKIYVENPETGEEKELEIVKEFESEEEAEKEAEKIAKELEKAGYKVKKIEIEVIPLPPLPENPSAG [r5_660_TrMRF],> 6
12,SAGGSAPPPKMKRIELKVEDPEHGYEVRVEVMIYPNDSISIQYESPNGKPLPKERAQKLLKELGIESAGGSA [r15_872_TrROS],< -1
13,SAGGSAGGSAMEAEATPIPLETEEFEIVVTILPGGTARVTTTPPEDGVPTESTVSVETVRALSAGGSAGGSA [r18_247_JUSTAS],< -1
14,SSVKIEEKPLPDGTILVTITTPPENPEEVAEKVKEEVKAPVTVTSVEEVELEEGEKPLKVVKITIEVDKASA [r9_431_JUSTAS],< -1
15,SAGGSMTELIPTPPSATTLNVTKTVPDPRTGTTVTTNVTVEVVPEGDGYVATVYYDPSGRPVKRSLSAGGSA [r2_123_JUSTAS],< -1
16,KTYYLKAENAPFEEIVEKAREALEADPEEGAEIVIEVPGNPELLEKLDFDEIIPYDIPERPLYIVRAKAPPS [r1_467_TrMRF],< -1
17,SAGGSAGGSMDDTEEESSSVSRFLENGERYTTRTKTTTRIRPDGTEEVEVEVTTTPLPPDVPLSAGGSAGGS [r12_927_JUSTAS],< -1
18,SAGGGMMVNLKFESPTSSSTVPLPVVEIRRLPSPEYEEVVVPDGTRYLFNPKTNTLLEEKEVPPLEELSAGG [r13_636_JUSTAS],< -1
19,SAGGSAGGSAGGMITVKDPATGKWREVTPEELEEVLAANPGPITVEREGGRRTVPAALLSAGGSAGGSAGGS [r10_839_JUSTAS],< -1

row,Sequence,folding stability dG unfold [kcal/mol]
1,SAGPNFQIKKVEHKGGKIEIPIRLPNGRPFTARIKVEKRPDPDGNDRPRTKIEISEDALKEYIPPDLIKSAG [r5_462_TrROS],< -1
2,SAGGSAGGGKVPKPVPGPLTILFDVAEDELPPEEIRKLFPDAKVYRFPKGLRVTVPVNGKLVPGSAGGSAGG [r6_738_TrMRF],< -1
3,SAGMTPEELEAGRPVERTIPLEIQHPEGNPIATYNITGTLTMEELKKLKEEIREEAKKKGIPPNLNTSLSAG [r5_606_JUSTAS],< -1
4,SAGGSMPLETLETTGEYVPGTGVYVTKLAVGDPKSDVSFSVTETRPTTDPVTGTPSLYSKPVSFSYKKSAGG [r19_129_JUSTAS],< -1
5,SAGGSAGGVRVRVVYPDGEPIGEIDIQLPPEMPQDQRQVKELAENIASRFKENGRKVKVEIEPPSAGGSAGG [r6_884_TrROS],< -1
6,SAGGSAGGSAMTLRDIARELAEKHGEPYKIKISHPNGRKREFNPDDLDRIPPGPWEVEIERPSAGGSAGGSA [r18_394_TrROS],< -1
7,SAGPLKPGKTIEVPMEFTSPSDIVDELEKLPGIKDIEPTGIEPEPNPDGPPRIRVPFTFKIPKDGEPLSAGG [r19_221_TrROS],< -1
8,SAGGSAGGSAGIKVDQNPESNMFSVKIRNDGKEKTIEIDMPPGEPPDIDDLAKKLGIEVVSAGGSAGGSAGG [r11_1053_TrROS],< -1
9,SAGGSAGGSAMLVELEAGRVIEVPDATPEETRERVRAAVPPEVADEVRIVRAYDPERPVELSAGGSAGGSAG [r3_340_JUSTAS],< -1
10,SAGGSAFKVPPGNIKEEEDFKFKFPDGNNMKIKIIRYPGKKRLMMENPGNNEPQTMPVEDLKEMLQSAGGSA [r15_329_TrROS],< -1
11,SAGGSAGGSEVTEFTGTIEDPNSSTVIEVKTKVIPLPNGTPVTITETTTTTGEKTTTTTTTFASAGGSAGGS [r12_619_JUSTAS],< -1
12,SAGGSAGGSAIVEKIAKEFGFPAKIEVKRERNPGKWVVIPVRVRDPNGGKTWERKIHLPPNQSAGGSAGGSA [r18_313_TrROS],< -1
13,SAGGSAGGSMELPSGVVVKSTSEDPAAKTVTVSFPSGAVYTLPLPDPNVSQPVTVKTPPGAGVSAGGSAGGS [r12_149_JUSTAS],< -1
14,SAGGSAGGSGKIPKLIKEIGIPYEVKSIKVTTGKDDKPTVEIEFLPDVPEEDREKIKKAIEEESAGGSAGGS [r12_352_TrMRF],< -1
15,SAGGSAGGSAGMMTLKTGSVTIVRPVPAEEAPAPPEVPGAEELTRTEVVKTEVELLPAELLSAGGSAGGSAG [r3_488_JUSTAS],< -1
16,SAGGSAPEPYTFKMKNPKGPPVEITITRNPNNGNYMISVEMPGPGKKHEGPMPMEDLNNLPGLEPVSAGGSA [r15_622_TrROS],< -1
17,SAGGSAPDFKIKDIKIPHRRNPNGMYRVEIKLEVPDGRKIPIEVPYNEDGKPTPEQIENAAKELAKSAGGSA [r15_233_TrROS],< -1
18,SAGGSAGGSGMEPTFVPVEEIYYNPESNEISKTKSTVVIPPDGTVETFTTTEKFKKPPNASLESAGGSAGGS [r12_116_JUSTAS],< -1
19,MVISPALLREARRAGISDEFLKKAGDVIIPSEVANPEEVKELLAHPGVKKVYPVPPEDPEKLAAAKVVLPGS [r1_248_TrMRF],< -1

# Reference: the supplement of paper PMC12764529
